Numbering of substitutions follows the chain as printed.
B1: 857-2, recombinant human monoclonal IgG1 (antibody, V domains shown)
VH: EVQLVQSGEEVKKPGESLKISCKGSGYKFSSYWIGWVRQMPGKGLEWMGIIFPGDSDKRYSPSFQGQVTISADKSISTVYLQWSSLKASDTAMYYCARHITTHTYRGFFDFWGQGTLVTVSS
VL: AIQLTQSPSSLSASVGDRVTITCRASQDISSALAWYQQKPGKAPKLLIYDVSSLESGVPSRFSGSGSGTDFTLTISSLQPEDFATYYCQQFNGYPHRLTFGGGTKVEIK
notes: rest human IgG1 constant region; IgG1; VH germline HV5-51, VL germline KV1-13; also called mAb 857-2; Class I Bin 1 mAb; source: Expi293, transiently transfected with VH and VL plasmids, purified (Protein A)
B2: 221-5, recombinant human monoclonal IgG1 (antibody, V domains shown)
VH: EVQLVQSGAEVKKPGESLKISCKGSGYSFTSYWIGWVRQMPGKGLEWMGIIYPGDSDTRYSPSFQGQVTISADKSISTAYLQWSSLKASDTAMYYCARHLGIDYFFGMDVWGQGTTVTVSS
VL: EIVLTQSPATLSLSPGERATLSCRASQSVSSYLAWYQQKPGQAPRLLIYDASTRDTGIPARFSGSGSGTDFTLTISSLEPEDFAVYYCQHHSNWYTFGQGTKLEIK
notes: rest human IgG1 constant region; IgG1; VH unmutated from germline HV5-51, VL derived from KV3-11; also called Class I Bin 1 mAb; source: Expi293, transiently transfected with VH and VL plasmids, purified (Protein A)
B3: 221-11, recombinant human monoclonal IgG1 (antibody, V domains shown)
VH: EVQLVQSGAEVKKPGESLKISCQSSGYRFTIYWIGWVRQMPGKGLEWMGIIWPGDSDTRYSPSFQGQVTISADKSISTAYLQWSSLKASDTAMYYCVRGIGRYSNWFLDYWGQGTLVTVSS
VL: AIQLTQSPSSLSASVGDRVTITCRASQGFSSALAWYQQKPGKAPKLLIYDASSLESGVPSRFSGSGSGTDFTLTISSLQPEDFATYYCQQFNSYPLTFGGGTKVEIK
notes: rest human IgG1 constant region; IgG1; VH germline HV5-51, VL germline KV1-13; also called Class II Bin 1 mAb; source: Expi293, transiently transfected with VH and VL plasmids, purified (Protein A)
B4: 227-1, recombinant human monoclonal IgG1 (antibody, V domains shown)
VH: EVQLVQSGAEVKMPGESLKISCEVSGYSFTSYWIGWVRQMPGKGLEWMGIIYPGDSDTRYSPSFQGQVTISADKSISTAYLQWSSLKASDTAMYYCTRSISRSGPGFSLSWFFDYWGQGTLVTVSS
VL: B3 VL with F29I, S31N, S56R, S67F, T85I, S93G, Y94F, L96N, G100Q, K103R
notes: rest human IgG1 constant region; IgG1; VH germline HV5-51, VL germline KV1-13; also called Class III Bin 1 mAb; source: Expi293, transiently transfected with VH and VL plasmids, purified (Protein A)

What was measured:
[1] = target: T1, Native OspA serotype 3 on B. garinii PBr cells (Borreliella garinii PBr, UniProt B8F1J0, strain); experiment: flow cytometry on cells; native Bbsl strains (primary isolates, ST1-7) probed with mAb; conditions: one partner purified
T1 construct: OspA serotype 3 of B. garinii PBr, native on the bacterial surface; also called native OspA ST3; source: endogenous, B. garinii PBr cells

[2] = target: T2, Recombinant OspAST1 (residues 18-273) from B. burgdorferi B31 (Borreliella burgdorferi B31, UniProt P0CL66); experiment: BLI; Octet RED96e; mAb captured on AHC sensors, three-fold dilution series of OspA (21.58 nM to 0.089 nM); PBS, 0.1% BSA, 0.01% Tween20; global 1:1 model; conditions: both partners purified
T2 construct: Outer surface protein A (OspA) serotype 1, B. burgdorferi B31, residues 18 to 273; Used for the crystal structures; also called OspA (18-273); outer surface protein A serotype 1; not shown: His10, N-terminal, cleaved; SUMO, N-terminal, cleaved

[3] = target: T3, OspA serotype 2 (B. afzelii PKo allele) on B. burgdorferi HB19-R1 reporter strain (Borreliella afzelii PKo allele, in B. …, UniProt P0A3N7); experiment: flow cytometry on cells; live B. burgdorferi HB19-R1 reporter strains expressing OspA ST1-7 probed with 10 µg/ml mAb, then Alexa 647-labeled goat anti-human IgG; conditions: one partner purified
T3 construct: OspA serotype 2, allele of B. afzelii PKo; also called OspAST2; OspA ST2; source: expressed from a reporter plasmid in B. burgdorferi HB19-R1, on live cells
T3 sequence (P0A3N7 17-273): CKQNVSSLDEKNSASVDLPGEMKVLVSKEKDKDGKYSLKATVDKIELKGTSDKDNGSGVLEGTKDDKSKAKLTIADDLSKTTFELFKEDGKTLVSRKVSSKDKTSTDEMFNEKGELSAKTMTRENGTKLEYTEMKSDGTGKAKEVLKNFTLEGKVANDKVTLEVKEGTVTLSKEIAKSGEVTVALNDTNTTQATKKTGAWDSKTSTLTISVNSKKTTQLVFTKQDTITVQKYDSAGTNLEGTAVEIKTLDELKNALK

[4] = target: T4, OspA serotype 4 (B. bavariensis PBi allele) on B. burgdorferi HB19-R1 reporter strain (Borreliella bavariensis PBi allele, in …, UniProt Q6LBF1, strain); experiment: as above; conditions: one partner purified
T4 construct: OspA serotype 4, allele of B. bavariensis PBi; also called OspAST4; OspA ST4; source: expressed from a reporter plasmid in B. burgdorferi HB19-R1, on live cells

[5] = target: T5, OspA serotype 3 (B. garinii PBr allele) on B. burgdorferi HB19-R1 reporter strain (Borreliella garinii PBr allele, in B. …, UniProt B8F1J0, strain); experiment: as above; conditions: one partner purified
T5 construct: OspA serotype 3, allele of B. garinii PBr; also called OspAST3; OspA ST3; source: expressed from a reporter plasmid in B. burgdorferi HB19-R1, on live cells

[6] = target: T6, Recombinant OspA serotype 1 (provided by Moderna) (Borreliella burgdorferi, strain not …, UniProt P0CL66); experiment: microsphere immunoassay (MIA); recombinant OspA ST1-7 coupled to Magplex-C microspheres; serial dilutions of mAb in PBS, 2% BSA, pH 7.4, 1 h at room temperature; PE goat anti-human IgG Fc; conditions: both partners purified
T6 construct: OspA serotype 1; also called recombinant OspA ST1; ST 1; source: E. coli, purified; provided by Dr. Meredith Finn (Moderna)
T6 sequence (P0CL66 17-273): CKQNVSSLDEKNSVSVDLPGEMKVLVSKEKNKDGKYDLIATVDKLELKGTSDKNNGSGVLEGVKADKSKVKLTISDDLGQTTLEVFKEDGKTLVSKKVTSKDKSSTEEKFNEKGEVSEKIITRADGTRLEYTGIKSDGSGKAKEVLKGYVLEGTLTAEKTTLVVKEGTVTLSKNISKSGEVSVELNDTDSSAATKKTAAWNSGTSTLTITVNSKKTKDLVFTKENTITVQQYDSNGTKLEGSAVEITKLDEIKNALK

Binder | binding result [1] | Kd [2] [nM] | MFI [3] | MFI [4] | MFI [5] | binding result [6] | binding result [5]
B1 | binds | 0.3 | > 4000 | > 4000 | > 4000 | – | –
B2 | – | 0.52 | > 4000 | > 4000 | > 4000 | binds | –
B3 | – | 0.35 | – | – | – | – | binds
B4 | – | 1.7 | – | – | – | – | –

From doi:10.64898/2025.12.24.696337, “A Broadly Conserved Protective Epitope on the Lyme Disease Vaccine Antigen, OspA” (bioRxiv, 2025)
